Assay results published in PMC4015550, “Immunopurification of adenomatous polyposis coli (APC) proteins” (BMC Research Notes, 2013).

Biological target: the molecule itself
Assay: not stated; data not shown; APC fragment of residues 1-61 said to form a dimer; no method or conditions told

B1: APC-NT antigen (APC residues 1–61 with an N-terminal FLAG-tag) (domain or fragment, human, UniProt P25054 1-61, looked up)
chain: MAAASYDQLLKQVEALKMENSNLRQELEDNSNHLTKLETEASNMKEVLKQLQGSIEDEAMA
notes: adenomatous polyposis coli (APC), human, amino acids 1-61, the N-terminal oligomerisation (coiled-coil) region; also called N-terminal fragment of APC (residues 1–61); source: E. coli (pET30a+), purified (anti-FLAG M2 Sepharose, MonoQ anion exchange, reversed-phase HPLC)
With B1 the “stoichiometry N” value was 2.
